# Columns and labels:
# Assay in all cases: filter binding
# Cdc13-L91R = biological target: T1, Cdc13-L91R (Saccharomyces cerevisiae, UniProt P32797 1-924, L91R)
# T1 sequence: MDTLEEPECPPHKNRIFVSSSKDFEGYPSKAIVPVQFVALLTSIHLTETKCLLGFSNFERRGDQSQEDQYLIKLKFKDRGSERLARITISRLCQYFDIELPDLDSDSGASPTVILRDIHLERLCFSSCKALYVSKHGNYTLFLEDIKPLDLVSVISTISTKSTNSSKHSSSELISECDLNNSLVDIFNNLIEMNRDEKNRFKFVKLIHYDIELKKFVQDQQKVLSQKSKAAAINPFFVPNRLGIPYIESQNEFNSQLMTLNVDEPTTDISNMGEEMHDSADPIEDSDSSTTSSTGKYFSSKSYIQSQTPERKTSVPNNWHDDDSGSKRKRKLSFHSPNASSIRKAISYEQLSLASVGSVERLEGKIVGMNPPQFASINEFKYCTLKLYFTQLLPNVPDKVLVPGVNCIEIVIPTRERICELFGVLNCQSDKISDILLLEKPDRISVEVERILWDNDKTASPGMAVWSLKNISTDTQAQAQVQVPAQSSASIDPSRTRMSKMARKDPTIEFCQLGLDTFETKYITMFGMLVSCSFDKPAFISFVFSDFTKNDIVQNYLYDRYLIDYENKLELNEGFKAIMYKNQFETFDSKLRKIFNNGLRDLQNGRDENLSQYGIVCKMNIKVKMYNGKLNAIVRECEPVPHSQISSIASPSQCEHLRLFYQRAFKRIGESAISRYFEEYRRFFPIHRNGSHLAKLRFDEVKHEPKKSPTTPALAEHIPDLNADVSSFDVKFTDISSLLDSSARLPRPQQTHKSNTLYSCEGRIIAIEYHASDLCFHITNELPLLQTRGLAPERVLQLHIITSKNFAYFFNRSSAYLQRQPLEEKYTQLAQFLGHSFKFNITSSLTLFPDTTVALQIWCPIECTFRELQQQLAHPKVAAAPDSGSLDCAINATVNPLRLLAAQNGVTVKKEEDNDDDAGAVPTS
# Cdc13-DBD = biological target: T2, Cdc13-DBD (Saccharomyces cerevisiae, UniProt P32797 497-694)
# T2 sequence: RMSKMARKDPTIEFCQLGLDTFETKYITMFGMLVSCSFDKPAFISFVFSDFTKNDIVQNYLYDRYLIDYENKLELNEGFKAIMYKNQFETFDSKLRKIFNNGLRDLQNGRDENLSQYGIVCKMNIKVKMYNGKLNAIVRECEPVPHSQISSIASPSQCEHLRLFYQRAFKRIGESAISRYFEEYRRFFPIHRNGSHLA
# Cdc13 = biological target: T3, Cdc13 (Saccharomyces cerevisiae, UniProt P32797 1-924)
# T3 sequence: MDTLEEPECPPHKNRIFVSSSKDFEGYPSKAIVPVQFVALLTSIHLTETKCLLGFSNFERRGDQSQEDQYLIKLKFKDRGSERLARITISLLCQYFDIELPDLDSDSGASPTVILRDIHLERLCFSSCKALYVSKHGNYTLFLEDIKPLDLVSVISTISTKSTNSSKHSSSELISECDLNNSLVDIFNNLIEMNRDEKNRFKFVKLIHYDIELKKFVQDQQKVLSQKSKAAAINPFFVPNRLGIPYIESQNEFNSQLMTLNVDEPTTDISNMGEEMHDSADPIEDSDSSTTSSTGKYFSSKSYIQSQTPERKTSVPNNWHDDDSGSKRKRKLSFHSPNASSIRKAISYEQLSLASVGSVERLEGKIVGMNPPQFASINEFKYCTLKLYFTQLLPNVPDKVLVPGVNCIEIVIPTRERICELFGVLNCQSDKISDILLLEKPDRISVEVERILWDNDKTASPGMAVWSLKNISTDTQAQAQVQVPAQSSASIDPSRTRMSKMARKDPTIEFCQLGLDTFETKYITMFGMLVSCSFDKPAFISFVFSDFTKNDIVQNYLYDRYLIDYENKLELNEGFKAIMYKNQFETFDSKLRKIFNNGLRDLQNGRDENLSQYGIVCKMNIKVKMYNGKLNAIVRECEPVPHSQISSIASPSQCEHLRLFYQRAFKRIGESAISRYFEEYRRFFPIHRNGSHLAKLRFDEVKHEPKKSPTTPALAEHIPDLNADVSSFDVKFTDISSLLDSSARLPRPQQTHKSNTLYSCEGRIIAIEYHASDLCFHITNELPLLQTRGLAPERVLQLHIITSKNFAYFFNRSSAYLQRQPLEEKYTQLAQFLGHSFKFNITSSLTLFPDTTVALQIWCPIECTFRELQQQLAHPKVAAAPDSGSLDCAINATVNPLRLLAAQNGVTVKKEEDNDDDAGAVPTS
# Cdc13-MOB-DBD = biological target: T4, Cdc13-MOB-DBD (Saccharomyces cerevisiae, UniProt P32797 344-694)
# T4 sequence: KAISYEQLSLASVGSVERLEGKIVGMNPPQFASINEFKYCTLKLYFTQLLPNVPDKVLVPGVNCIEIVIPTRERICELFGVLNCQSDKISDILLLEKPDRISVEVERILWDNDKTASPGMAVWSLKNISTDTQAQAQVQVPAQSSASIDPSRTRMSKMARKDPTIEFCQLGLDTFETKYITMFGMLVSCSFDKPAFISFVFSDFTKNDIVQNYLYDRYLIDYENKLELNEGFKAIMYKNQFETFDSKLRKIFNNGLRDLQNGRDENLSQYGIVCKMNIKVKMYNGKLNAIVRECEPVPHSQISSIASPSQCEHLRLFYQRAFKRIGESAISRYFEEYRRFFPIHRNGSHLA
binder,measurement,setting,value
GTGTGGGTGTG (ssDNA) [Tel11],Kd,Cdc13-L91R,0.22 ± 0.05 nM
same,Kd,Cdc13-DBD,0.21 ± 0.02 nM
same,Kd,Cdc13,0.41 ± 0.04 nM
same,Kd,Cdc13-MOB-DBD,0.18 ± 0.03 nM

# Source: paper PMC3874162 (Nucleic Acids Research, 2013)
